Laboratory results: US20180037644A1 (Pfizer, published 2018)
Substitutions are numbered along the chain they refer to. Read-outs that look alike come from different tables or passages of the source. Each block holds one binder with its values, some of them ahead of it.

Assays:
Assay in all cases: cell-based or functional assay
[1] = target: T1, cynomolgus monkey IL-33 (cys mut) (cynomolgus monkey)
T1 chain: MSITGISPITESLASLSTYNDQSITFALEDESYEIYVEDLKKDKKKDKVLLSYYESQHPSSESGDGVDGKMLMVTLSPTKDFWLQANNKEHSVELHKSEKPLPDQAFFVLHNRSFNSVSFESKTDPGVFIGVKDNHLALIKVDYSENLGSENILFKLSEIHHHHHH

[2] = target: T2, human IL-33 (mm2) (human, UniProt O95760 112-270)
T2 chain: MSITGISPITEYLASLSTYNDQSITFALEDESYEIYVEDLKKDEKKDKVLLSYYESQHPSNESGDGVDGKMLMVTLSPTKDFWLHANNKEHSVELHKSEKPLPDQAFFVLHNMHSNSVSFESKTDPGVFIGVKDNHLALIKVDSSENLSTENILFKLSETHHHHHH

[3] = target: T1, cynomolgus monkey IL-33 (cys mut)
[4] = target: T2, human IL-33 (mm2)
[5] = target: T3, native human IL-33 from human lung fibroblast (HFL-1) lysate (human, UniProt O95760 1-270, limits assumed)
T3 sequence (looked up): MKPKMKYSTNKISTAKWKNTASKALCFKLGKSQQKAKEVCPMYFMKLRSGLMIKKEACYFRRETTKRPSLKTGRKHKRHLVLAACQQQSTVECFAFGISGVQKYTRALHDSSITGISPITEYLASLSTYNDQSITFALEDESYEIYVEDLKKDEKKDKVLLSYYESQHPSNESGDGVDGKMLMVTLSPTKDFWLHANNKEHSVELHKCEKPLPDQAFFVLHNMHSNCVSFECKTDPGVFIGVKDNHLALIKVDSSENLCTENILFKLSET

[6] = target: T2, human IL-33 (mm2)
[7] = target: T1, cynomolgus monkey IL-33 (cys mut)
[8] = target: T4, human IL-33 WT (R&D) (human, UniProt O95760 112-270)
T4 sequence: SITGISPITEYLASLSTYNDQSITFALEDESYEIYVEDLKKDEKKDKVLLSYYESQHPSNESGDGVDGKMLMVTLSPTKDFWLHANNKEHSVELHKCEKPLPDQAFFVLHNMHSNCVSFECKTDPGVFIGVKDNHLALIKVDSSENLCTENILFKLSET

[9] = target: T5, wild-type cynomolgus monkey IL-33 (cynomolgus monkey)
T5 chain: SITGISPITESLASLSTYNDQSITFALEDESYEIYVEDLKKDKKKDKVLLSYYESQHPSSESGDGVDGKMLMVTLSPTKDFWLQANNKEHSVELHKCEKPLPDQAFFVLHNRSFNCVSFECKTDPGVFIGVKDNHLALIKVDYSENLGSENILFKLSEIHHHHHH

[10] = target: T2, human IL-33 (mm2)
[11] = target: T1, cynomolgus monkey IL-33 (cys mut)
[12] = target: T4, human IL-33 WT (R&D); remark: listed apart in the source
[13] = target: T5, wild-type cynomolgus monkey IL-33
[14] = target: T2, human IL-33 (mm2)
[15] = target: T1, cynomolgus monkey IL-33 (cys mut)
[16] = target: T2, human IL-33 (mm2)
[17] = target: T1, cynomolgus monkey IL-33 (cys mut)
[18] = target: T2, human IL-33 (mm2)
[19] = target: T4, human IL-33 WT (R&D); remark: listed apart in the source
[20] = target: T2, human IL-33 (mm2)

B1: rat 30A1 (30A1 hybridoma) (antibody, V domains shown)
VH: QVNLLQSGATLVKPGASMKMSCKASGYSFTDYWVSWVKQSHGKSLEWIGEIYPNSGANNFNKEFKDKATLTVDKSTSTAYMELTRLTSEDSAVYYCTRGPYYYSSQIIFAYWGQGTLVTVSS
VL: IIVMTQSPKSMSISVGDRVTMNCKASQNVGNNIAWYRQKPGQSPELLIYYASNRYTGVPDRFTGGGYGTDFTLTINSVQAEDAAFYYCQRIYNSPPTFGGGTKVELK
IC50, HEK293 ST2 NFkB [1]: 2.95 nM
IC50, HEK293 ST2 NFkB [2]: 0.47 nM
IC50, HEK293 ST2 NFkB [3]: 0.14 nM
IC50, HEK293 ST2 NFkB [4]: 0.665 nM
% inhibition 0.1 nM Ab, HEK293 ST2 NFkB [5]: 35.4%
% inhibition 1 nM Ab, HEK293 ST2 NFkB [5]: 77.3%
% inhibition 10 nM Ab, HEK293 ST2 NFkB [5]: 108%

B2: rat 30B11 (30B11 hybridoma) (antibody, V domains shown)
VH: QVKLLQSGAALVKPGASVKMSCATSGFSFTDYWVSWVKQSHGKGLEWIGEIYPNSGADNFNENFKGKATLTVDKSTSTAYMELSRLTSEDSAIYYCTRGPYYYSTQIIFAYWGQGTLVTVSS
VL: B1 VL with I1N, I33L, R37Q, E45K, K107R
IC50, HEK293 ST2 NFkB [1]: 0.2 nM
IC50, HEK293 ST2 NFkB [2]: 0.038 nM
IC50, HEK293 ST2 NFkB [3]: 0.084 nM
IC50, HEK293 ST2 NFkB [4]: 0.056 nM
% inhibition 0.1 nM Ab, HEK293 ST2 NFkB [5]: 93.5%
% inhibition 1 nM Ab, HEK293 ST2 NFkB [5]: 108%
% inhibition 10 nM Ab, HEK293 ST2 NFkB [5]: 113%

B6: IL33-265 (antibody, human IgG1, kappa, V domains shown)
VH: EVQLVESGGNLEQPGGSLRLSCTASGFTFSRSAMNWVRRAPGKGLEWVSGISGSGGRTYYADSVKGRFTISRDNSKNTLYLQMNSLSAEDTAAYYCAKDSYTTSWYGGMDVWGHGTTVTVSS
VL: DIQMTQSPSSVSASVGDRVTITCRASQGIFSWLAWYQQKPGKAPKLLIYAASSLQSGVPSRFSGSGSGTDFTLTISSLQPEDFAIYYCQQANSVPITFGQGTRLEIKR
IC50, HEK293 ST2 NFkB [10]: 0.014 nM
Cynomolgus monkey:human IC50 ratio: cysteine mutant IL-33 [11]: 109
IC50, HEK293 ST2 NFkB [11]: 1.56 nM
IC50, HEK293 ST2 NFkB (DTT-pretreated IL-33) [12]: 0.05 nM
Cynomolgus monkey:human IC50 ratio: wild-type IL-33 [13]: 256
IC50, HEK293 ST2 NFkB (DTT-pretreated IL-33) [13]: 12.7 nM

B7: IL33-45 (antibody, human IgG1, kappa, V domains shown)
VH: EVQLVESGGGLVQPGGSLRLSCAASGFTFSSYWMYWVRQAPGKGLEWVASITPDGGNTYYPDSVKGRFTISRDNAKNSLYLQMNSLRAEDTAVYYCARGHYYYTSYSLGYWGQGTLVTVSS
VL: DIQMTQSPSSLSASVGDRVTITCKASQNINKHLDWYQQKPGKAPKLLIYFTNNLQTGVPSRFSGSGSGTDFTLTISSLQPEDFATYYCFQYNNGWTFGGGTKVEIKR
IC50, HEK293 ST2 NFkB [14]: 0.325 nM
IC50, HEK293 ST2 NFkB [15]: 0.535 nM

B8: IL33-68 (antibody, human IgG1, kappa, V domains shown)
VH: B7 VH with D54N, S105A
VL: B7 VL
IC50, HEK293 ST2 NFkB [16]: 0.046 nM
IC50, HEK293 ST2 NFkB [17]: 0.062 nM

B11: IL33-136 (antibody, human IgG1, kappa, V domains shown)
VH: B7 VH with D54N, N57E
VL: B7 VL with N93Q
IC50, whole blood IFNγ [18]: 0.098 nM
IC50, HEK293 ST2 NFkB WT IL-33 [19]: 0.037 nM

B13: rat 9B3 (9B3 hybridoma) (antibody, V domains shown)
VH: EVQLVETGGGLVQPGRSLKLSCVASGFTFSNYWMYWIRQAPGMGLEWVSSINNDGGNTYYLDSVKGRFTISRNNAENTVYLQMNSLRSEDTATYYCAKGHYSYSSYSFSYWGQGTLVTVSS
VL: DIQMTQSPSVLSASVGDRVTLSCKASHNINKHLDWCQQKVGEAPKLLIYFTNNLQTGIPSRFSGSGSGTDYTLTISSLQPEDVATYFCFQYNSGWTFGGGTKLELK
% inhibition at 20 nM, HEK293 ST2 NFkB [1]: 23%
IC50, HEK293 ST2 NFkB [2]: 0.17 nM
IC50, HEK293 ST2 NFkB [3]: 2.72 nM
IC50, HEK293 ST2 NFkB [4]: 0.076 nM
% inhibition 0.1 nM Ab, HEK293 ST2 NFkB [5]: 55.1%
% inhibition 1 nM Ab, HEK293 ST2 NFkB [5]: 99.2%
% inhibition 10 nM Ab, HEK293 ST2 NFkB [5]: 108%

Continued, values first:

IC50, HEK293 ST2 NFkB [6]: 0.003 nM
Cynomolgus monkey:human IC50 ratio: cysteine mutant IL-33 [7]: 1.1
IC50, HEK293 ST2 NFkB [7]: 0.003 nM
IC50, HEK293 ST2 NFkB [8]: 0.008 nM
Cynomolgus monkey:human IC50 ratio: wild-type IL-33 [9]: 5.4
IC50, HEK293 ST2 NFkB [9]: 0.043 nM
B3: IL33-312 (antibody, human IgG1, lambda, V domains shown)
VH: EVQLLESGGGLVQPGGSLRLSCAASGFTFSSYAMSWVRQAPGKGLEWVSGISAIDQSTYYADSVKGRFTISRDNSKNTLYLQMNSLRAEDTAVYYCARQKFMQLWGGGLRYPFGYWGQGTMVTVSS
VL: SYVLTQPPSVSVSPGQTASITCSGEGMGDKYAAWYQQKPGQSPVLVIYRDTKRPSGIPERFSGSNSGNTATLTISGTQAMDEADYYCGVIQDNTGVFGGGTKLTVLG

IC50, HEK293 ST2 NFkB [6]: 0.006 nM
Cynomolgus monkey:human IC50 ratio: cysteine mutant IL-33 [7]: 206
IC50, HEK293 ST2 NFkB [7]: 1.2 nM
IC50, HEK293 ST2 NFkB [8]: 0.027 nM
Cynomolgus monkey:human IC50 ratio: wild-type IL-33 [9]: 528
IC50, HEK293 ST2 NFkB [9]: 14.1 nM
B4: IL33-313 (antibody, human IgG1, lambda, V domains shown)
VH: EVQLLESGGGLVQPGGSLRLSCAASGFTFSSYAMSWVRQAPGKGLEWVSGIADDFTSTYYADPVKGRFTISRDNSKNTLYLQMNSLRAEDTAVYYCARDLWMMNYAGGLRYPFGYWGQGTMVTVSS
VL: B3 VL with G26R, I90L, Q91K, D92Q, N93D

IC50, HEK293 ST2 NFkB [10]: 0.018 nM
Cynomolgus monkey:human IC50 ratio: cysteine mutant IL-33 [11]: 32.5
IC50, HEK293 ST2 NFkB [11]: 0.59 nM
IC50, HEK293 ST2 NFkB (DTT-pretreated IL-33) [12]: 0.061 nM
Cynomolgus monkey:human IC50 ratio: wild-type IL-33 [13]: 27.1
IC50, HEK293 ST2 NFkB (DTT-pretreated IL-33) [13]: 1.64 nM
IC50, HEK293 ST2 NFkB [6]: 0.007 nM
Cynomolgus monkey:human IC50 ratio: cysteine mutant IL-33 [7]: 29.2
IC50, HEK293 ST2 NFkB [7]: 0.213 nM
IC50, HEK293 ST2 NFkB [8]: 0.021 nM
Cynomolgus monkey:human IC50 ratio: wild-type IL-33 [9]: 104
IC50, HEK293 ST2 NFkB [9]: 2.19 nM
B5: IL33-310 (antibody, human IgG4 S228P, kappa, V domains shown)
VH: EVQLVESGGGLVQPGGSLRLSCAASGFTFSSFSMSWVRQAPGKGLEWVATISGGKTFTDYVDSVKGRFTISRDDSKNTLYLQMNSLRAEDTAVYYCTRANYGNWFFEVWGQGTLVTVSS
VL: EIVLTQSPATLSLSPGERATLSCRASESVAKYGLSLLNWFQQKPGQPPRLLIFAASNRGSGIPARFSGSGSGTDFTLTISSLEPEDFAVYYCQQSKEVPFTFGQGTKVEIKR

IC50, HEK293 ST2 NFkB [16]: 0.053 nM
IC50, HEK293 ST2 NFkB [17]: 0.104 nM
B9: IL33-56 (antibody, human IgG1, kappa, V domains shown)
VH: B7 VH with D54N, N57E
VL: B7 VL

IC50, HEK293 ST2 NFkB [16]: 0.084 nM
IC50, HEK293 ST2 NFkB [17]: 0.19 nM
B10: IL33-55 (antibody, human IgG1, kappa, V domains shown)
VH: B7 VH with D54N, N57D
VL: B7 VL

IC50, HEK293 ST2 NFkB [1]: 0.21 nM
IC50, HEK293 ST2 NFkB [2]: 0.043 nM
IC50, HEK293 ST2 NFkB [3]: 0.032 nM
IC50, HEK293 ST2 NFkB [4]: 0.018 nM
IC50, HEK293 ST2 NFkB [20]: 0.024 nM
% inhibition 0.1 nM Ab, HEK293 ST2 NFkB [5]: 112%
% inhibition 1 nM Ab, HEK293 ST2 NFkB [5]: 110%
% inhibition 10 nM Ab, HEK293 ST2 NFkB [5]: 113%
B12: rat 7E8 (7E8 hybridoma) (antibody, V domains shown)
VH: EVQLVETGGGLVQPGRSLKLSCKTSGFTFSSYWMYWIRQAPGKGLEWVSSITPNGGNTYYPDSVKGRFTISRDNAENTIYLQMSSLRSEDTATYFCAKGHYYYTSYSLGYWGQGSLVTVSS
VL: B13 VL with D1E, H27Q, C36Y, V40L, Y71C, S76N, E81G, S93N, K106D
